Data as given in PMC5736207.
Numbering of substitutions follows the chain as printed. In names and notes the source's numbering stands.

Assays:
purified protein [1] = substrate: O=P(O)(O)O[C@H]1O[C@H](CO)[C@@H](O)[C@H](O)[C@@H]1O; test: purified protein; format: biochemical, Homo sapiens; settings: pH 7.5, 32°C
purified protein [2] = substrate: O=P(O)(O)O[C@H]1O[C@H](CO)[C@@H](O)[C@H](O)[C@H]1O; test: purified protein; format: biochemical, Homo sapiens; settings: 27 μM Glc-1,6-P2, MgCl2 5 mM, pH 7.5, 32°C

B1: PMM2 (phosphomannomutase2) (Homo sapiens) (protein)
chain: AAPGPALCLFDVDGTLTAPRQKITKEMDDFLQKLRQKIKIGVVGGSDFEKVQEQLGNDVVEKYDYVFPENGLVAYKDGKLLCRQNIQSHLGEALIQDLINYCLSYIAKIKLPKKRGTFIEFRNGMLNVSPIGRSCSQEERIEFYELDKKENIRQKFVADLRKEFAGKGLTFSIGGQISFDVFPDGWDKRYCLRHVENDGYKTIYFFGDKTMPGGNDHEIFTDPRTMGYSVTAPEDTRRICELLFS
notes: recombinant, E. coli BL21(DE3), purified as in earlier work; no tag mentioned
Q: For B1, which Km (purified protein [1]; 3 μM Man-1,6-P2, MgCl2 5 mM) is on record?
A: Its Km is 23.7 ± 4.5 µM.

B2: PMM1 (phosphomannomutase1) (Homo sapiens; E219K/M186Q/N218D) (protein)
chain: AVTAQAARRKERVLCLFDVDGTLTPARQKIDPEVAAFLQKLRSRVQIGVVGGSDYCKIAEQLGDGDEVIEKFDYVFAENGTVQYKHGRLLSKQTIQNHLGEELLQDLINFCLSYMALLRLPKKRGTFIEFRNGMLNISPIGRSCTLEERIEFSELDKKEKIREKFVEALKTEFAGKGLRFSRGGQISFDVFPEGWDKRYCLDSLDQDSFDTIHFFGDKTSPGGNDFEIFADPRTVGHSVVSPQDTVQRCREIFFPETAHEA
notes: recombinant, E. coli BL21(DE3), purified as in earlier work (DEAE, butyl Sepharose); dimer; no tag mentioned
Q: Which Km (purified protein [1]; 10 μM Man-1,6-P2, MgCl2 5 mM) does the source give for B2 here?
A: Its Km is 1.6 ± 0.4 µM.

Q: And the Km (purified protein [2])?
A: Its Km is 3.5 ± 1.3 µM.

B3: PMM1 (phosphomannomutase1) (Homo sapiens) (protein)
chain: B2 chain with Q185M, D217N, K218E
notes: as for B2
Q: With B3 as the protein, how does the Km (purified protein [1]; 10 μM Man-1,6-P2, MgCl2 5 mM) read?
A: The Km was 6.5 ± 1.3 µM.

Q: What about the Km (purified protein [2]) of the same protein?
A: The Km was 7.3 ± 1.7 µM.
